Key:
[1] = biological target: T1, human epidermal growth factor receptor antigen (human, UniProt P00533 25-645, limits assumed); experiment: SPR (Biacore T200), 37 C, scFv-Fc, 0 uM MTX
T1 construct: whole entry named; also called EGFR
Protocol: (§1) All binding kinetics analysis was performed on label-free Biacore surface plasmon biosensors (Biacore T200™ from GE Life Sciences) at 37° C. in 10 mM Hepes pH 7.4, 150 mM NaCl, 0.05% Tween-20 (HBST+), with or without 10 µM MTX. The Biacore data were processed in Biacore T200 Evaluation Software, and the data were double-referenced (Myszka, 1999, J Mol Recognit 12(5):279-284) and fit globally to a simple Langmuir with mass transport model to determine the equilibrium dissociation constant, KD, from the ratio of the kinetic rate constants (KD = koff/kₒₙ). In some cases the binding of antigen was very low (or not detectable) in the presence of 10 µM MTX and as a result kinetic rate constants could not be accurately determined. In these cases, a KD (or KD limit) was estimated based on the binding response at the highest analyte concentration tested or based on the typical limit of detection for a Biacore T200.
(§2) The first 4 rounds of panning used biotinylated EGFR antigen captured on streptavidin or neutravidin coated 96-well plates. […] 1536 clones were randomly chosen from the 4th and 5th round of panning against the EGFR antigen and their binding specificity determined by phage ELISA.

[2] = biological target: T1, human epidermal growth factor receptor …; experiment: SPR (Biacore T200), 37 C; KD at 10 uM MTX / KD at 0 uM MTX
Protocol: as §1, §2

[3] = biological target: T1, human epidermal growth factor receptor …; experiment: SPR (Biacore T200), 37 C, scFv-Fc, 10 uM MTX
Protocol: as §1, §2
(§3) “*”: For interactions where kₒₙ and koff are reported, the KD was calculated using koff/kₒₙ.

human CD33 antigen [4] = biological target: T2, human CD33 antigen (human, UniProt P20138 18-259, limits assumed); experiment: SPR (Biacore T200), 37 C, scFv-Fc, 0 uM MTX
T2 construct: whole entry named; also called Siglec-3
Protocol: as §1

human CD33 antigen [5] = biological target: T2, human CD33 antigen; experiment: SPR (Biacore T200), 37 C, scFv-Fc, 10 uM MTX
Protocol: as §1, §3

human CD33 antigen [6] = biological target: T2, human CD33 antigen; experiment: SPR (Biacore T200), 37 C; KD at 10 uM MTX / KD at 0 uM MTX
Protocol: as §1

human CD33 antigen [7] = biological target: T2, human CD33 antigen; experiment: SPR (Biacore T200), 37 C, scFv-Fc, 10 uM MTX; KD estimated, rate constants not determined
Protocol: as §1, §3

T2 sequence (P20138 18-259 limits assumed): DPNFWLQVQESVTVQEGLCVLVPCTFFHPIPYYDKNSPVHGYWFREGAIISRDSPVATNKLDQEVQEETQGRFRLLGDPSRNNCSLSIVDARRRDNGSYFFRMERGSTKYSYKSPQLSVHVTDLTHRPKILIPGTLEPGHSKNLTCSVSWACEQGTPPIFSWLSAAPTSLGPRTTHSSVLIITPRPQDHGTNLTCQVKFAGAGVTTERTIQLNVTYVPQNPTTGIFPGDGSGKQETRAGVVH

Kd [1] [µM]	koff [1] [s⁻¹]	kon [1] [M⁻¹ s⁻¹]	Ratio: KD with MTX / KD without MTX [2]	Kd [3] [µM]	koff [3] [s⁻¹]	kon [3] [M⁻¹ s⁻¹]	Kd (human CD33 antigen [4]) [µM]	koff (human CD33 antigen [4]) [s⁻¹]	kon (human CD33 antigen [4]) [M⁻¹ s⁻¹]	Kd (human CD33 antigen [5]) [µM]	koff (human CD33 antigen [5]) [s⁻¹]	kon (human CD33 antigen [5]) [M⁻¹ s⁻¹]	Ratio: KD with MTX / KD without MTX (human CD33 antigen [6])	Kd (human CD33 antigen [7]) [µM]	Binder
0.185	0.013	71000	7.5	1.39	0.033	24000									P08_D06 scFv-Fc fusion (scFv, V domains shown, Tested as scFv-Fc fusion) VH: QVQLVESGGGLVQAGGSLRLSCAASRRSSRSWAMHWVRQAPGKGLEWVAVISYDGRLKYYADSVKGRFTISRDNAEYLVYLQMNSLRAEDTAVYYCAADDDGDVYAGYSYGGFDYWGQGTLVTVSS VL: not shown
0.235	0.028	120000	2.5	0.58	0.05	87000									P05_A11 scFv-Fc fusion (scFv, V domains shown, Tested as scFv-Fc fusion) VH: QVQLVESGGGLVQAGGSLRLSCAASRRSSRSWAMHWVRQAPGKGLEWVAVISYDGRLKYYADSVKGRFTISRDNAEYLVYLQMNSLRAEDTAVYYCAASDDADIFDDYSYGAMDYWGQGTLVTVSS VL: QSVLTQPPSASGTPGQRVTISCSGSSSNIGRNYVYWYQQLPGTAPKLLIYMTSQRPSGVPDRFSGSKSGTSASLAISGLRSEDEADYYCASWDDNLRAWVFGTGTKLTVL
0.36	0.071	200000	1.3	0.48	0.073	150000									P08_E05 scFv-Fc fusion (scFv, V domains shown, Tested as scFv-Fc fusion) VH: QVQLVESGGGLVQAGGSLRLSCAASRRSSRSWAMHWVRQAPGKGLEWVAVISYDGRLKYYADSVKGRFTISRDNAEYLVYLQMNSLRAEDTAVYYCAADGKGAAWSEVDEPDVWGQGTLVTVSS VL: not shown
0.23	0.024	100000	1.1	0.256	0.026	100000									P01_B06 scFv-Fc fusion (scFv, V domains shown, Tested as scFv-Fc fusion) VH: QVQLVESGGGLVQAGGSLRLSCAASRRSSRSWAMHWVRQAPGKGLEWVAVISYDGRLKYYADSVKGRFTISRDNAEYLVYLQMNSLRAEDTAVYYCAADTSMFASYDPMDVWGQGTLVTVSS VL: QSVLTQPPSASGTPGQRVTISCSGSSSNIGRNYVNWYQQLPGTAPKLLIYRDDHRPSGVPDRFSGSKSGTSASLAISGLRSEDEADYYCASWDDTLSGWVFGTGTKLTVL
							0.025	0.0021	83000	0.298	0.013	45000	12		P04_C05 scFv-Fc fusion (scFv, V domains shown, Tested as scFv-Fc fusion) VH: QVQLVESGGGLVQAGGSLRLSCAASRRSSRSWAMHWVRQAPGKGLEWVAVISYDGRLKYYADSVKGRFTISRDNAEYLVYLQMNSLRAEDTAVYYCAAGLPWTDYWGQGTLVTVSS VL: QSVLTQPPSASGTPGQRVTISCSGSNSNIGSNYVSWYQQLPGTAPKLLIYSNNQRPSGVPDRFSGSKSGTSASLAISGLRSEDEADYYCAAWDDRLSVVFGTGTKLTVL
0.266	0.022	82000	9.5	2.53	0.13	50000									P15_F02 scFv-Fc fusion (scFv, V domains shown, Tested as scFv-Fc fusion) VH: QVQLVESGGGLVQAGGSLRLSCAASRRSSRSWAMHWVRQAPGKGLEWVAVISYDGRLKYYADSVKGRFTISRDNAEYLVYLQMNSLRAEDTAVYYCAAARDVDGSGYDTIDVWGQGTLVTVSS VL: not shown
0.889	0.076	85000	> 2												P01_H04 scFv-Fc fusion (scFv, V domains shown, Tested as scFv-Fc fusion) VH: QVQLVESGGGLVQAGGSLRLSCAASRRSSRSWAMHWVRQAPGKGLEWVAVISYDGRLKYYADSVKGRFTISRDNAEYLVYLQMNSLRAEDTAVYYCAADMDDMLSYYNSFDIWGQGTLVTVSS VL: not shown
							0.154	0.017	110000				8.5	1.3	P01_A09 scFv-Fc fusion (scFv, V domains shown, Tested as scFv-Fc fusion) VH: QVQLVESGGGLVQAGGSLRLSCAASRRSSRSWAMHWVRQAPGKGLEWVAVISYDGRLKYYADSVKGRFTISRDNAEYLVYLQMNSLRAEDTAVYYCAAERPTSDGSTGGMDVWGQGTLVTVSS VL: DIQMTQSPSSLSASVGDRVTITCRASQSISSYLNWYQQKPGKAPKLLIYGASTLQSGVPSRFSGSGSGTDFTLTISSLQPEDFATYYCQQSYSSGTFGQGTKVEIK
							0.092	0.011	120000	1.17	0.087	75000	12.7		P16_E06 scFv-Fc fusion (scFv, V domains shown, Tested as scFv-Fc fusion) VH: QVQLVESGGGLVQAGGSLRLSCAASRRSSRSWAMHWVRQAPGKGLEWVAVISYDGRLKYYADSVKGRFTISRDNAEYLVYLQMNSLRAEDTAVYYCAAEGGDYPGTSDGGLDIWGQGTLVTVSS VL: DIQMTQSPSSLSASVGDRVTITCRASQSISNYLNWYQQKPGKAPKLLIYGASSLQSGVPSRFSGSGSGTDFTLTISSLQPEDFATYYCQQSYSAGTFGQGTKVEIK
							0.072	0.0045	63000	0.547	0.051	94000	7.6		P08_C08 scFv-Fc fusion (scFv, V domains shown, Tested as scFv-Fc fusion) VH: QVQLVESGGGLVQAGGSLRLSCAASRRSSRSWAMHWVRQAPGKGLEWVAVISYDGRLKYYADSVKGRFTISRDNAEYLVYLQMNSLRAEDTAVYYCAAEGSGSTDGSGAIDVWGQGTLVTVSS VL: DIQMTQSPSSLSASVGDRVTITCRASQSIGSYLNWYQQKPGKAPKLLIYAASSLQSGVPSRFSGSGSGTDFTLTISSLQPEDFATYYCQQSYSSGSFGQGTKVEIK
0.823	0.27	330000	> 11												P07_H08 scFv-Fc fusion (scFv, V domains shown, Tested as scFv-Fc fusion) VH: QVQLVESGGGLVQAGGSLRLSCAASRRSSRSWAMHWVRQAPGKGLEWVAVISYDGRLKYYADSVKGRFTISRDNAEYLVYLQMNSLRAEDTAVYYCAAGFDWGWDSSDIYSAMDYWGQGTLVTVSS VL: DIQMTQSPSSLSASVGDRVTITCRASQNIGRYLHWYQQKPGKAPKLLIYSASNLQSGVPSRFSGSGSGTDFTLTISSLQPEDFATYYCQQSYSSPFTFGQGTKVEIK
0.0063	0.00067	110000	3.9	0.025	0.00072	29000									P14_E03 scFv-Fc fusion (scFv, V domains shown, Tested as scFv-Fc fusion) VH: QVQLVESGGGLVQAGGSLRLSCAASRRSSRSWAMHWVRQAPGKGLEWVAVISYDGRLKYYADSVKGRFTISRDNAEYLVYLQMNSLRAEDTAVYYCAAAPRVDWSDVSSGIDYWGQGTLVTVSS VL: QSVLTQPPSASGTPGQRVTISCSGSISNIGTNNVYWYQQLPGTAPKLLIYRNNQRPSGVPDRFSGSKSGTSASLAISGLRSEDEADYYCSAWDDSLSGVVFGTGTKLTVL
0.188	0.011	61000	> 50												P01_F02 scFv-Fc fusion (scFv, V domains shown, Tested as scFv-Fc fusion) VH: QVQLVESGGGLVQAGGSLRLSCAASRRSSRSWAMHWVRQAPGKGLEWVAVISYDGRLKYYADSVKGRFTISRDNAEYLVYLQMNSLRAEDTAVYYCAADVESALAYGEPYHHMDVWGQGTLVTVSS VL: QSVLTQPPSASGTPGQRVTISCSGSSSNIGRNYVYWYQQLPGTAPKLLIYRTSQRPSGVPDRFSGSKSGTSASLAISGLRSEDEADYYCATWDDSLSGWVFGTGTKLTVL
